Results taken from US10487318.
Changes are numbered by the printed parent chain. Names may count otherwise.

T1: 33mer peptide (LQLQPFPQPQLPYPQPQLPYPQPQLPYPQPQPF)
T1 chain: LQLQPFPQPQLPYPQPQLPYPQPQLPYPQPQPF

T2: fluorescently quenched α-gliadin hexapeptide analogue QXL520-PQPQLP-K(5-FAM)-NH2
T2 chain: PQPQLP

B1: Homologue 14 (NCBI YP_001861188) (protein)
chain: HMTKHPLPGSERVLAPGSKVVAQCDPSETIEVVVVLRRKNEQQFAQMMKTIEAGAAGARPLTREELEQRFGALPEDIAKLKAFAAQHGLSVVREDASARTVVLSGRIEQFQQAFDVQLQHYEHQSMGRFRGRTGAISVPDELHGVVTAVLGLDDRPQARPHFRIRPPFQPARAQSASSFTPLQLASLYRFPQGDGSGQCIGIVELGGGYRTADLDSYFSSLGVGSPKVVAVGVDQSGNQPTGDPNGPDGEVTLDIEIAGALAPAATIAVYFTTNSDAGFIDAVSQAVHDRTNQPSVISISWGAPESMWTAQSMKALNDVLQSAAAIGVTVCAASGDSGSSDGVGDGRDHVDFPASSPYVLACGGTSLQGSGRTVAHEVVWNDGSNGGATGGGVSGAFPVPAWQEGLSTSAAQGGQRALTGRGVPDVAGDASPLTGYDVIVDGNNTVIGGTSAVAPLWAALIARINGAKGAPVGFVNPKLYKASACNDITQGNNGSYAATTGWDACTGLGSPDGVKVAAAL
B2: Homologue 26 (NCBI YP_004030750) (protein)
chain: MHSYLKQQSHMQSYLEQENHMRSYLEMRKKPYFDDLANIRPGGLTPAQVCQAYQFAKVQPVRPVKLGIVSLAGQYLSSDMSKAFTGYGLPTPVVSTAGSQVLGDLWSNVENMMDIEIAGAAWAYATGTAATLLMQFEPNNETGIPNAINALVAAGCEVISISWGAPANLQTMEAITARKEACKQAAVQNVHVFAASGDESLNDGTNSRTPDDPCCDPNVWGVGGTRLVLQADGSIAQESAWGDGNAADKGGGGGFDSREPLPDYQVGVVHSEHRGSPDSSANADPGTGYAIVANGQWLIGGGTSASAPLTAGYVAAILSTLPGPISQSVLQRKLYTAHKTAFRDILLGSNGAPARPGWEEATGLGSINGPGLAAALQS
B3: Homologue 12 (NCBI YP_003658449) (protein)
chain: MTQPRYTPLPGSEREAPLLAARSNATAARASRAQTASATVVLRRRSELPEALVLDQQFISSDELAARYGADPVDIEKVRSVLERFKVSVVEVDAASRRVKVEGAVADIERAFNIALHSASGTDPHSGRGFEYRYRTGVLSVPAELGGIVTAVLGLDNRRQAETRLRVVPAAALGSSYTPVQLGEIYNFPQDATGAGQRIAIIELGGGYTPAGLRRYFASLGVVPPKVAAVSVDGAQNAPGPDPGADGEVQLDVEVAGALAPGAHVLVYFAPNTDQGFLDAVSQAAHATPPPTAISISWGASEDSWTASARDALNQALRDAAALGVTVTAAAGDSGSSDGVPDRRAHVDFPASSPYVLATGGTSLRADPATGVVQSETVWNDSQGSTGGGVSDVFPRPAWQAHVDVPHAGRGVPDVSAVADPATGYQVLVDNQPAVIGGTSAVAPLWAALVARLAESLGRPLGLLQPLVYPRTPGSTAYPGFRDITIGNNGAYKAGKGWDAATGLGVPDGTELLAHLRGLNGSE
B4: Homologue 13 (NCBI YP_004348568) (protein)
chain: MARHLHAGSEPKVITESKCIGACDPAERIHVTVMLRREGEQALDALVDKLASGDPAAKPVSREDFAKRFGARADDIQHTEAFAKRHQLTVERVDPVQSVVELAGTIAQFENAFGVKLEKYEHHAIGSFRARTGAIALPDELHDAVTAVLGLDTRPQAHPHFRFRPPFQPARSGAGTSYTPLQLASIYNFPEGDGAGQCIALVELGGGYRAADIRQYFEQLGVKPPKLVDVSVNGGRNAPTDDPNGPDGEVALDIEVAGAIAPGATIAVYFAGNSDAGFIQSVNQAIHDSTNRPSVVSISWGGPEASWTQQSITAFNNVLKTAASLGVTVCAASGDSGSSDGLQDGSNHVDFPASSPYVLACGGTTLDAQAGQGIRREVVWNDEAASGGAGGGGVSAVFPAPSYQKGLSAKATGGGSTPLSQRGVPDVAGDASPTTGYIISIAGTTAVLGGTSAVAPLWAALIARINANGKSPVGWANPKLYAQPGAFHDITQGNNGAFAASEGWDACTGLGSPDGAKVAAALQGASGGSQQGRATGA
B5: Kumamolysin-As N291D, Q361D (protein)
chain: MSDMEKPWKEGEEARAVLQGHARAQAPQAVDKGPVAGDERMAVTVVLRRQRAGELAAHVERQAAIAPHAREHLKREAFAASHGASLDDFAELRRFADAHGLALDRANVAAGTAVLSGPVDAINRAFGVELRHFDHPDGSYRSYLGEVTVPASIAPMIEAVLGLDTRPVARPHFRMQRRAEGGFEARSQAAAPTAYTPLDVAQAYQFPEGLDGQGQCIAIIELGGGYDEASLAQYFASLGVPAPQVVSVSVDGASNQPTGDPSGPDGEVELDIEVAGALAPGAKFAVYFAPDTDAGFLDAITTAIHDPTLKPSVVSISWGGPEDSWTSAAIAAMNRAFLDAAALGVTVLAAAGDSGSTDGEDDGLYHVDFPAASPYVLACGGTRLVASGGRIAQETVWNDGPDGGATGGGVSRIFPLPAWQEHANVPPSANPGASSGRGVPDLAGNADPATGYEVVIDGEATVIGGTSAVAPLFAALVARINQKLGKAVGYLNPTLYQLPADVFHDITEGNNDIANRAQIYQAGPGWDPCTGLGSPIGVRLLQALLPSASQPQPGSTENLYFQSGALEHHHHHH
B6: Kumamolysin-As N291D, D293A (protein)
chain: B5 chain with D293A, D361Q
B7: Kumamolysin-As N291D, D358N (protein)
chain: B5 chain with D358N, D361Q
B8: Kumamolysin-As G319S, S354N, D358G, D368H (protein)
chain: B5 chain with D291N, G319S, S354N, D358G, D361Q, D368H
B9: Kumamolysin-As G319S, D358G, D368H (protein)
chain: B5 chain with D291N, G319S, D358G, D361Q, D368H
B10: Kumamolysin-As D358N (protein)
chain: B5 chain with D291N, D358N, D361Q
B11: Kumamolysin-As T292S, N291D, G319S, D358G, D368H (protein)
chain: B5 chain with T292S, G319S, D358G, D361Q, D368H
B12: Kumamolysin-As D358G, D368H (protein)
chain: B5 chain with D291N, D358G, D361Q, D368H
B13: Kumamolysin-As G319S, D368S (protein)
chain: B5 chain with D291N, G319S, D361Q, D368S
B14: Kumamolysin-As N291D, G319S, S354N, D358G, Q361D, D368H (protein)
chain: B5 chain with G319S, S354N, D358G, D368H
B15: Kumamolysin-As N291D, G319S, D358G, D368H (protein)
chain: B5 chain with G319S, D358G, D361Q, D368H
B16: Kumamolysin-As N291D, D293A, D358N (protein)
chain: B5 chain with D293A, D358N, D361Q
B17: Kumamolysin-As D293T, N291D, G319S, D358G, D368H (protein)
chain: B5 chain with D293T, G319S, D358G, D361Q, D368H
B18: Kumamolysin-As S262K, D293N, N291D, G319S, D358G, D368H (protein)
chain: B5 chain with S262K, D293N, G319S, D358G, D361Q, D368H
B19: Kumamolysin-As S262G, T292S, N291D, G319S, D358G, D368H (protein)
chain: B5 chain with S262G, T292S, G319S, D358G, D361Q, D368H
B20: Kumamolysin-As S354N, D358G, D368H (protein)
chain: B5 chain with D291N, S354N, D358G, D361Q, D368H
B21: Kumamolysin-As N291D, D293A, G319S, D358G, Q361D, D368H (protein)
chain: B5 chain with D293A, G319S, D358G, D368H
B22: Kumamolysin-As N291D (protein)
chain: B5 chain with D361Q
B23: Kumamolysin-As N291D, D293A, G319S, S354N, D358G, Q361D, D368H (protein)
chain: B5 chain with D293A, G319S, S354N, D358G, D368H
B24: Kumamolysin-As N291D, D293A, Q361D, D358N (protein)
chain: B5 chain with D293A, D358N
B25: Kumamolysin-As N291D, G319S, S354N, D358G, D368H (protein)
chain: B5 chain with G319S, S354N, D358G, D361Q, D368H
B26: Kumamolysin-As N291D, G319S, D358G, Q361D, D368H (protein)
chain: B5 chain with G319S, D358G, D368H
B27: Kumamolysin-As V119D, S262K, D293T, N291D, G319S, D358G, D368H (protein)
chain: B5 chain with V119D, S262K, D293T, G319S, D358G, D361Q, D368H
B28: Kumamolysin-As T357A (protein)
chain: B5 chain with D291N, T357A, D361Q
B29: Kumamolysin-As D358G (protein)
chain: B5 chain with D291N, D358G, D361Q
B30: Kumamolysin-As N291D, D293A, D358G, Q361D (protein)
chain: B5 chain with D293A, D358G
B31: Kumamolysin-As D293A (protein)
chain: B5 chain with D291N, D293A, D361Q
B32: Kumamolysin-As N291D, Q361D, D358G (protein)
chain: B5 chain with D358G

Legend:
[1] = biological target: T1, 33mer peptide …
[2] = biological target: T2, fluorescently quenched α-gliadin …

Protein | Degradation pattern of 33mer (60 min) [1] | activity against the 33mer peptide [1] | Fold Change in Activity of PQ Hydrolysis Relative to Wild Type Kumamolysin-As [2] [fold]
B1 | WT-like - minor | – | –
B2 | Max-like | had very strong activity comparable to KumaMax™ at breaking down the 33mer peptide | –
B3 | WT-like | – | –
B4 | Max-like | demonstrated significant activity against the 33mer peptide | –
B5 | – | – | 7.5
B6 | – | – | 15
B7 | – | – | 18.9
B8 | – | – | 5
B9 | – | – | 7
B10 | – | – | 4
B11 | – | – | 49
B12 | – | – | 6
B13 | – | – | 2
B14 | – | – | 50
B15 | – | – | 93
B16 | – | – | 24

Protein | Degradation pattern of 33mer (60 min) [1] | activity against the 33mer peptide [1] | Fold Change in Activity of PQ Hydrolysis Relative to Wild Type Kumamolysin-As [2] [fold]
B17 | – | – | 58
B18 | – | – | 62
B19 | – | – | 29
B20 | – | – | 9
B21 | – | – | 40.9
B22 | – | – | 10
B23 | – | – | 58
B24 | – | – | 14.8
B25 | – | – | 54.6
B26 | – | – | 23.1
B27 | – | – | 120
B28 | – | – | 2
B29 | – | – | 3
B30 | – | – | 15
B31 | – | – | 3
B32 | – | – | 20
